Target: Hck (UniProt P08631)
Test: phosphorylation enrichment, bacterial display (enrichment ratio); higher = better substrate or ligand; peptides without Tyr show the background
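Further: 11-residue human phosphosite peptides and single-mutation variants displayed on the E. coli surface, counted by deep sequencing, each peptide's frequency after selection divided by its frequency in the unselected input library; frequency after pTyr selection over input frequency; kinase dosed for 20-30% of maximal phosphorylation in three min.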

Chain of Hck (P08631 whole entry, looked up): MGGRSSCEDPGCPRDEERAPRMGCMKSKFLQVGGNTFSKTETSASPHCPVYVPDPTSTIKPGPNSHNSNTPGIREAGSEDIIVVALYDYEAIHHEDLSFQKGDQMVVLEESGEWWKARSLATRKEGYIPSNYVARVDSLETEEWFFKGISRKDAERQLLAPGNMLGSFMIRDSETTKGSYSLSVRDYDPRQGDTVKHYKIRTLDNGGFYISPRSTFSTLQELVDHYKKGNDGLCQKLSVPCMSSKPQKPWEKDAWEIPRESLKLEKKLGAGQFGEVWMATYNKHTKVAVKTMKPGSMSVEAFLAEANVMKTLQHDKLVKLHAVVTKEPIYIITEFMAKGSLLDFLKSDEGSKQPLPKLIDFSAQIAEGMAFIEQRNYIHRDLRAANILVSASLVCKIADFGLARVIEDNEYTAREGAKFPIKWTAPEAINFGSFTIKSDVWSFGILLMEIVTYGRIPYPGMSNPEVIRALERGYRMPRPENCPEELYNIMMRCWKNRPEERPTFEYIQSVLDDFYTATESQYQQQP

Sequence	phosphorylation enrichment
EPVSDYINADI [PTPN11_Y304_N308D]	0.637
LLQEWYMIISR [HUWE1_Y4066_R4063Q]	1.1
VPLLEYFWDIF [CDAN1_Y712_R714W_YF]	0.432
TQFWLYFAGNL [SLC25A5_Y112]	0.479
RKGGSYTQAAS [HLA-A_Y344]	0.443
VTRDEYPSNPM [CEMIP2_Y1015_I1010V]	0.397
TVLWLYTGTRP [UGT1A1_Y337_R336L]	0.466
HKANEYFPVVI [ADAMTS18_Y764_L769I_YF]	0.569
AHADEYGAEAL [HBA1_Y25_G23D]	0.511
YRQLQYCPSVE [CTNND2_Y508]	0.606
REGAKYVSHDA [ASS1_Y113_G117D]	0.553
CPYNLYAEQFS [HGD_Y40_L44F]	3
FRPPFYHRNCM [HGD_Y334_YF]	0.48
IMWDSYTTNKV [GNB3_Y85_V81M]	0.421
CGQDPYIRELG [UROS_Y19]	0.569
LAGRYYALRSM [CKB_Y174_K177R]	0.708
EQKKFYNAVKK [SCN5A_Y1495_M1498V_YF]	0.429
MGSFNYLGFAW [SPTLC2_Y178_R183W_YF]	0.588
QDLTDYLMKIL [ACTA2_Y190_R185Q]	0.916
CTTIHYNFLCN [TP53_Y234_M237L_YF]	0.469
IGRHAYGDQFR [IDH1_Y135_YF]	0.341
PLYSKYWPNHI [GREB1L_Y1560_R1558S]	17.4
RAEAQYLLVSN [LRIG1_Y1054]	0.493
DKEKWYPLGTS [PIK3C2G_Y1438_N1442T]	0.44
VKGGAYNPVTV [MCCC2_Y145_Y146N]	0.434
PADQAYSWYQH [NDST1_Y711_R709Q]	1.37
NFRTIYVNANE [KCNH2_Y475_T474I]	0.525
ANSSFHSTRSA [NUMA1_Y1836_Y1836H]	0.551
RRVEPYGENFN [APOA4_Y310]	0.45

Target: Jak2 (UniProt O60674)
Test: as above

Chain of Jak2 (O60674 whole entry, looked up): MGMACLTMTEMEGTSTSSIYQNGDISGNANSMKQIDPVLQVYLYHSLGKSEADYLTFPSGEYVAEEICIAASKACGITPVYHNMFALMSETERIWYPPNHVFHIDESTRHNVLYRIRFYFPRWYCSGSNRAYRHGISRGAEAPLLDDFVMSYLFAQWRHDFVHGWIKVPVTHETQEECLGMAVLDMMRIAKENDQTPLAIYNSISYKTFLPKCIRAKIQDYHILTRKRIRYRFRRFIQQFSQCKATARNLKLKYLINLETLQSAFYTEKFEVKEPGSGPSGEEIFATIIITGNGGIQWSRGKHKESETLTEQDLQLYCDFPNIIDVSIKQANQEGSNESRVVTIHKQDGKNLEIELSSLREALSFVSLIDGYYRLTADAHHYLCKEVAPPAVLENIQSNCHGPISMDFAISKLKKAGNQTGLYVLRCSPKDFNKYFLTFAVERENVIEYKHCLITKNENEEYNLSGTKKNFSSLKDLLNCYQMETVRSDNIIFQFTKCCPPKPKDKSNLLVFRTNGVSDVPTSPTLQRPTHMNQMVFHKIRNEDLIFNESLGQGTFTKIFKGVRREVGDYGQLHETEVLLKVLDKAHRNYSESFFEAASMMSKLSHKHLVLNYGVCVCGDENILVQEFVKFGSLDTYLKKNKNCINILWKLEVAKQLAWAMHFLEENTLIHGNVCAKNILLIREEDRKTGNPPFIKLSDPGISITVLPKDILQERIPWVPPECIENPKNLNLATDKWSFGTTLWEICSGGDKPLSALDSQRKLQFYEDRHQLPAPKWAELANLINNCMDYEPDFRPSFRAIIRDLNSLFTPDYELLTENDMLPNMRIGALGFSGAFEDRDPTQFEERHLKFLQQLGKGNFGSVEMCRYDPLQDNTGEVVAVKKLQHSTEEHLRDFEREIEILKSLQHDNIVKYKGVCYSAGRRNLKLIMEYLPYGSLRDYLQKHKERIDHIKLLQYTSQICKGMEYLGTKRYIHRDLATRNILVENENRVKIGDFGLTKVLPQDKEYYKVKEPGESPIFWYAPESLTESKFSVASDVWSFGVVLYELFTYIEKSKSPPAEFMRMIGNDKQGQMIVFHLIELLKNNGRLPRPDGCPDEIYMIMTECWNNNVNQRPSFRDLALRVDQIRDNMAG

Sequence	phosphorylation enrichment
EPVSDYINADI [PTPN11_Y304_N308D]	1.12
LLQEWYMIISR [HUWE1_Y4066_R4063Q]	3.08
VPLLEYFWDIF [CDAN1_Y712_R714W_YF]	1.12
TQFWLYFAGNL [SLC25A5_Y112]	1.64
RKGGSYTQAAS [HLA-A_Y344]	0.637
VTRDEYPSNPM [CEMIP2_Y1015_I1010V]	0.696
TVLWLYTGTRP [UGT1A1_Y337_R336L]	1.06
HKANEYFPVVI [ADAMTS18_Y764_L769I_YF]	2.38
AHADEYGAEAL [HBA1_Y25_G23D]	0.96
YRQLQYCPSVE [CTNND2_Y508]	0.857
REGAKYVSHDA [ASS1_Y113_G117D]	0.886
CPYNLYAEQFS [HGD_Y40_L44F]	0.989
FRPPFYHRNCM [HGD_Y334_YF]	0.761
IMWDSYTTNKV [GNB3_Y85_V81M]	0.91
CGQDPYIRELG [UROS_Y19]	0.971
LAGRYYALRSM [CKB_Y174_K177R]	1.66
EQKKFYNAVKK [SCN5A_Y1495_M1498V_YF]	1.06
MGSFNYLGFAW [SPTLC2_Y178_R183W_YF]	1.85
QDLTDYLMKIL [ACTA2_Y190_R185Q]	1.34
CTTIHYNFLCN [TP53_Y234_M237L_YF]	0.623
IGRHAYGDQFR [IDH1_Y135_YF]	0.487
PLYSKYWPNHI [GREB1L_Y1560_R1558S]	6.37
RAEAQYLLVSN [LRIG1_Y1054]	0.933
DKEKWYPLGTS [PIK3C2G_Y1438_N1442T]	0.765
VKGGAYNPVTV [MCCC2_Y145_Y146N]	0.781
PADQAYSWYQH [NDST1_Y711_R709Q]	0.765
NFRTIYVNANE [KCNH2_Y475_T474I]	0.717
ANSSFHSTRSA [NUMA1_Y1836_Y1836H]	0.552
RRVEPYGENFN [APOA4_Y310]	0.965

Target: MERTK (UniProt Q12866)
Test: as above

Chain of MERTK (Q12866 whole entry, looked up): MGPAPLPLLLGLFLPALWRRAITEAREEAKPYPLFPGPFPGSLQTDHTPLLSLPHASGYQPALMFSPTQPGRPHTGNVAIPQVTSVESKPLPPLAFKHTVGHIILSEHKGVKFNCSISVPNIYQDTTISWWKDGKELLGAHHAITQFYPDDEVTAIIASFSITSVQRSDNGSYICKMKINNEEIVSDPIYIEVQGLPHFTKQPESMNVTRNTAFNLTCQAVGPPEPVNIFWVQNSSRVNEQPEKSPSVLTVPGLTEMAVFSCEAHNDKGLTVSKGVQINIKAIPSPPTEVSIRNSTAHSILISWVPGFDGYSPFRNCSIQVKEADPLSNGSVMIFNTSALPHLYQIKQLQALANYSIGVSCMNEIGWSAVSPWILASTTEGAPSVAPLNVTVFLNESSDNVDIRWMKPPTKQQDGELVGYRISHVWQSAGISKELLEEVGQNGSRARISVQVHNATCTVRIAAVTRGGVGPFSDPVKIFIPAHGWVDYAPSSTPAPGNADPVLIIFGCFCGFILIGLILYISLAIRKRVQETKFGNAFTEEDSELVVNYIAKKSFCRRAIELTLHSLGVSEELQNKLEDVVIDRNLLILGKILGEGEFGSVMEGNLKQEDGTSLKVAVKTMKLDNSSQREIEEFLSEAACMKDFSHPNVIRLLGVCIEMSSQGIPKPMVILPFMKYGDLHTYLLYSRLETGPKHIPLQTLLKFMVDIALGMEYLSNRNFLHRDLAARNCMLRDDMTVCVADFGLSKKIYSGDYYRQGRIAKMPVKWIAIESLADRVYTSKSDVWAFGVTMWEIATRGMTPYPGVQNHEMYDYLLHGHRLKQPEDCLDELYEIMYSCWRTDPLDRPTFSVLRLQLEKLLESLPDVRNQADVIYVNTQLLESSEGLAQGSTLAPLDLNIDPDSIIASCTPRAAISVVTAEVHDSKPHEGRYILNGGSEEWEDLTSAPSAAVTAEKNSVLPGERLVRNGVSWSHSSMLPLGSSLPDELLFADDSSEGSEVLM

Sequence	phosphorylation enrichment
EPVSDYINADI [PTPN11_Y304_N308D]	0.492
LLQEWYMIISR [HUWE1_Y4066_R4063Q]	1.1
VPLLEYFWDIF [CDAN1_Y712_R714W_YF]	0.413
TQFWLYFAGNL [SLC25A5_Y112]	0.576
RKGGSYTQAAS [HLA-A_Y344]	0.461
VTRDEYPSNPM [CEMIP2_Y1015_I1010V]	0.487
TVLWLYTGTRP [UGT1A1_Y337_R336L]	0.318
HKANEYFPVVI [ADAMTS18_Y764_L769I_YF]	0.663
AHADEYGAEAL [HBA1_Y25_G23D]	0.536
YRQLQYCPSVE [CTNND2_Y508]	0.483
REGAKYVSHDA [ASS1_Y113_G117D]	0.833
CPYNLYAEQFS [HGD_Y40_L44F]	3.9
FRPPFYHRNCM [HGD_Y334_YF]	0.426
IMWDSYTTNKV [GNB3_Y85_V81M]	0.305
CGQDPYIRELG [UROS_Y19]	0.427
LAGRYYALRSM [CKB_Y174_K177R]	3.63
EQKKFYNAVKK [SCN5A_Y1495_M1498V_YF]	0.482
MGSFNYLGFAW [SPTLC2_Y178_R183W_YF]	0.681
QDLTDYLMKIL [ACTA2_Y190_R185Q]	0.809
CTTIHYNFLCN [TP53_Y234_M237L_YF]	0.435
IGRHAYGDQFR [IDH1_Y135_YF]	0.296
PLYSKYWPNHI [GREB1L_Y1560_R1558S]	20.1
RAEAQYLLVSN [LRIG1_Y1054]	0.681
DKEKWYPLGTS [PIK3C2G_Y1438_N1442T]	0.458
VKGGAYNPVTV [MCCC2_Y145_Y146N]	0.471
PADQAYSWYQH [NDST1_Y711_R709Q]	3.75
NFRTIYVNANE [KCNH2_Y475_T474I]	0.367
ANSSFHSTRSA [NUMA1_Y1836_Y1836H]	0.496
RRVEPYGENFN [APOA4_Y310]	0.561

Tested on: c-Abl (mouse)
Test: as above

Sequence	phosphorylation enrichment
EPVSDYINADI [PTPN11_Y304_N308D]	9
LLQEWYMIISR [HUWE1_Y4066_R4063Q]	1.81
VPLLEYFWDIF [CDAN1_Y712_R714W_YF]	0.666
TQFWLYFAGNL [SLC25A5_Y112]	1.22
RKGGSYTQAAS [HLA-A_Y344]	0.902
VTRDEYPSNPM [CEMIP2_Y1015_I1010V]	0.523
TVLWLYTGTRP [UGT1A1_Y337_R336L]	0.532
HKANEYFPVVI [ADAMTS18_Y764_L769I_YF]	1.01
AHADEYGAEAL [HBA1_Y25_G23D]	0.791
YRQLQYCPSVE [CTNND2_Y508]	0.861
REGAKYVSHDA [ASS1_Y113_G117D]	0.75
CPYNLYAEQFS [HGD_Y40_L44F]	0.72
FRPPFYHRNCM [HGD_Y334_YF]	0.649
IMWDSYTTNKV [GNB3_Y85_V81M]	0.553
CGQDPYIRELG [UROS_Y19]	0.877
LAGRYYALRSM [CKB_Y174_K177R]	0.684
EQKKFYNAVKK [SCN5A_Y1495_M1498V_YF]	0.531
MGSFNYLGFAW [SPTLC2_Y178_R183W_YF]	0.768
QDLTDYLMKIL [ACTA2_Y190_R185Q]	1.13
CTTIHYNFLCN [TP53_Y234_M237L_YF]	0.585
IGRHAYGDQFR [IDH1_Y135_YF]	0.516
PLYSKYWPNHI [GREB1L_Y1560_R1558S]	22.6
RAEAQYLLVSN [LRIG1_Y1054]	0.665
DKEKWYPLGTS [PIK3C2G_Y1438_N1442T]	0.591
VKGGAYNPVTV [MCCC2_Y145_Y146N]	0.609
PADQAYSWYQH [NDST1_Y711_R709Q]	0.6
NFRTIYVNANE [KCNH2_Y475_T474I]	0.509
ANSSFHSTRSA [NUMA1_Y1836_Y1836H]	0.616
RRVEPYGENFN [APOA4_Y310]	0.707

— the supplement of paper PMC10065799, “High-throughput profiling of sequence recognition by tyrosine kinases and SH2 domains using bacterial peptide display” (eLife, 2023)
